{"source": "patent US20160009813A1", "about": "(Memorial Sloan Kettering, published 2016)", "binders": {"B1": {"name": "1928z chimeric antigen receptor (CD19-specific second-generation CAR: SJ25C1-derived scFv, CD28, CD3 zeta) (receptor)", "chain": "EVKLQQSGAELVRPGSSVKISCKASGYAFSSYWMNWVKQRPGQGLEWIGQIYPGDGDTNYNGKFKGQATLTADKSSSTAYMQLSGLTSEDSAVYFCARKTISSVVDFYFDYWGQGTTVTVSSGGGGSGGGGSGGGGSDIELTQSPKFMSTSVGDRVSVTCKASQNVGTNVAWYQQKPGQSPKPLIYSATYRNSGVPDRFTGSGSGTDFTLTITNVQSKDLADYFCQQYNRYPYTSGGGTKLEIKRAAAIEVMYPPPYLDNEKSNGTIIHVKGKHLCPSPLFPGPSKPFWVLVVVGGVLACYSLLVTVAFIIFWVRSKRSRLLHSDYMNMTPRRPGPTRKHYQPYAPPRDFAAYRSRVKFSRSAEPPAYQQGQNQLYNELNLGRREEYDVLDKRRGRDPEMGGKPRRKNPQEGLYNELQKDKMAEAYSEIGMKGERRRGKGHDGLYQGLSTATKDTYDALHMQALPPR"}}, "target": "T1, human CD19 (human, UniProt P15391 20-556)", "T1 sequence (looked up)": "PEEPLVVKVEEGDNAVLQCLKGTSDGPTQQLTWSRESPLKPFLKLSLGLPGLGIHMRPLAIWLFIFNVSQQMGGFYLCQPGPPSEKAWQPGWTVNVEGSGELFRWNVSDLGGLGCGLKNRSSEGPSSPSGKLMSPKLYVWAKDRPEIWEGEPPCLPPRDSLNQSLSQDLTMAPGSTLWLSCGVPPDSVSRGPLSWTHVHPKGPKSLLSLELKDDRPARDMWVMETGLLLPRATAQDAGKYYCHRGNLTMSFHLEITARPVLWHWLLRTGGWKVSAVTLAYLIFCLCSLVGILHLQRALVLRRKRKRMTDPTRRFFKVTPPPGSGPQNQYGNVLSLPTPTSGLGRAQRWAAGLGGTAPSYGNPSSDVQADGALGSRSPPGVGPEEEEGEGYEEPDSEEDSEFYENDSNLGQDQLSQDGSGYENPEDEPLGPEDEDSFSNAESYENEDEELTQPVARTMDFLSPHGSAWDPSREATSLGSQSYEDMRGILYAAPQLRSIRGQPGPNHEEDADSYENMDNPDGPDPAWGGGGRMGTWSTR", "assay": "cell-based or functional assay", "data": [{"binder": "B1", "values": [{"measurement": "expansion after one stimulation with 3T3-CD19 cells (mean)", "value": 20, "unit": "fold"}, {"measurement": "expansion after three weekly stimulations with 3T3-CD19 cells", "value": "~1000", "unit": "fold"}]}]}
